Reference: the nanobody polyreactivity screen of Harvey et al. (2022)

Assay: yeast display, Sf9 membrane polyspecificity reagent, FACS + sequencing; frameworks hold sequencing errors
Outline: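 Galactose-induced (36–48 hours) yeast carrying a synthetic nanobody display library were exposed to 10% biotinylated, detergent-solubilized Sf9 membrane reagent at 4 °C for 1 hour. FACS followed streptavidin microbead enrichment, using low and high (top ~1%) gates for expression (anti-HA) and reagent binding (streptavidin). Colony PCR, MiSeq 2 × 250 sequencing and CDR-length filtering followed. Labels for polyreactivity reflect the gate of origin.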

| Sequence | polyreactivity (PSR sort gate) |
| --- | --- |
| QVQLVESGGGLVQAGGSLRLSCAASGFIFRRYAMGWYRQAPGKERELVAAITAGGGNTYYADSVKGRFTISRDNAKNTVYLQMHSLKPEDTAVYYCAAAGRWYYHGYNYWGQGTQVTVSS | high polyreactivity |
| QVQLVESGGGLVQAGGSLRLSCAASGFIFRRYAMGWYRQAPGKERELVASISWSGGSTYYADSVKGRFTISRDNAKNTVYLQMNSLKPEDTAVYYCAKGGYYSRYYSYGYWGQGTQVTVSS | high polyreactivity |
| QVQLVESGGGLVQAGGSLRLSCAASGFIFRRYSMGRYRQAPAKERELVAASTSGGGRTYYADSVKGRFTISRDNAKNTVYLQMNSLKPEDTAVYYCARVQRGDYDYWGQGTQVTVSS | high polyreactivity |
| QVQLVESGGGLVQAGGSLRLSCAASGFIFRRYVMGWYRQAPGKERELVAAISTSGGSTYYADSVKGRFTISRDNAKNSVYLQMNSLKPADTAVYYCNKAVGVTGFDYWGQGTEVTVSS | high polyreactivity |
| QVQLVESGGGLVQAGGSLRLSCAASGFIFRSYAMGWYRQAPGKERELVAAISSSGGRTYYADSVKGRFTISRDNAKNTVYLQMNSLKPEDTAVYYCATSLYTDNSWDNYWGQGTQVTVSS | high polyreactivity |
| QVQLVESGGGLVQAGGSLRLSCAASGFIFRTNAMGRYRQAPGKEREFVAAIRWSGGSTYYADSVKGRFTISRDNAKKTVYLQMNSLKPEDTAVYYCAAEIYLSTYFYPHSIYDYWGQGTQVTVSS | high polyreactivity |
| QVQLVESGGGLVQAGGSLRLSCAASGFIFRTYAMGWYRQAPGKERDLVAAISWRGGSTYYADSVKGRFTISRDNAKNTVYLQMNSLKPEDTAVYYCAKDTTRGVYRSWPKDMDYWGQGTQVTVSS | low polyreactivity |
| QVQLVESGGGLVQAGGSLRLSCAASGFIFRVYAMGWYRQAPGKERELVAAITRNGGSTYYADSVKGRFTISRDNAKNTVYLQMNSLKPEDTAVYYCATVYSFGQNRDYWGQGTQVTVSS | high polyreactivity |
| QVQLVESGGGLVQAGGSLRLSCAASGFIFRWYAMGWYRQAPGKERELVAAISRSGDSTYYADSVKGRFTISRDNAKNTVYLQMNSLKPEDTAVYYCAADDRYYTYGYDYWGQGTQVTVSS | low polyreactivity |
| QVQLVESGGGLVQAGGSLRLSCAASGFIFRYNAMGWYRQAPGKERELVAVITSGGRTYYADSVKGRFTISRDNAKNTVYLQMNSLKPEDTAVYYCNADSRHRRNYDYWGQGTQVTVSS | high polyreactivity |
| QVQLVESGGGLVQAGGSLRLSCAASGFIFRYYAMGWSRQAPGIEMELVAAINASGGRTYYADSVKGRFTISRDNARNTVYLQMNSLKPEDTAVYYCAAYRSYQTFDYWGQGTQVTVSS | high polyreactivity |
| QVQLVESGGGLVQAGGSLRLSCAASGFIFRYYAMGWSRQAPGKERELVAAITSGGRTSYADSVKGRFTISRDNAKNTVYLQMNSLKPEDTAVYYCAKDSYRQRYGSMEYWGQGTQVTVSS | high polyreactivity |
| QVQLVESGGGLVQAGGSLRLSCAASGFIFRYYAMGWYRQAPGKERELVAAIRGNSGNTYYADSVKGRFTISRDNAKNTVYLQMNSLKPEDTAVYYCAKPFNIWGQGTQVTVSS | high polyreactivity |
| QVQLVESGGGLVQAGGSLRLSCAASGFIFRYYAMGWYRQAPGKERELVAAISKRGGRTYYADSVKGRFTISRDNAKNTVYLQMNSLKPEDTAVYYCAAGVGTVAPDMDYWGQGTQVTVSS | high polyreactivity |
| QVQLVESGGGLVQAGGSLRLSCAASGFIFRYYAMGWYRQAPGKERELVAAISRIGGSSYYADSVKGRFTISRDNAKNTVYLQMNSPKPEVTAVYYCAVAEGYYPAYLRDYWGQGTQVTVSS | high polyreactivity |
| QVQLVESGGGLVQAGGSLRLSCAASGFIFRYYAMGWYRQAPGKERELVAAISSRGSTYYADSVKGRFTISRDNAKNTVYLQMNRLKPEYTALYYCAARGGYRLRYIPYVRYDYWGQGTQLTVSS | high polyreactivity |
| QVQLVESGGGLVQAGGSLRLSCAASGFIFRYYAMGWYRQAPGKERELVAAISWRGGTTYYADSVKGRFTFSRDNAKNTVYLQMNSLKPDDTAVYYCAADWQWDLGPYIYQVEYWGQGTQVTVSS | high polyreactivity |
| QVQLVESGGGLVQAGGSLRLSCAASGFIFRYYAMGWYRQAPGKERELVAAISWSGGSTYYADSVKGRFTISRDNAKNTVYLQMNSLKPEDTAVYYCNARYKYLFTVSRYDYWGQGTQVTVSS | high polyreactivity |
| QVQLVESGGGLVQAGGSLRLSCAASGFIFRYYAMGWYRQAPGKERELVADISWSGGSTHYADSVKGRFTISRDNAKNTVYLQMNSQKPEDTAVYYCAADPTLYSSWSTYYRSNYWGQGTQVTVSS | high polyreactivity |
| QVQLVESGGGLVQAGGSLRLSCAASGFIFRYYAMGWYRQAPGKERELVATISSGGGTHYADSVKGRFTISRDNAKNTVYLQMNSLKPEDTAVYYCNARGYRRLRTRVDYWGQGTQVTVSS | high polyreactivity |
| QVQLVESGGGLVQAGGSLRLSCAASGFIFRYYTMGWYRQAPGKERELVAAISSGTSTHYADSVKGRYTISRNNAKNTVNLQMNSLKPEDTAVYYCAADLPYWYNRKPIFPYYYWGQGTQVTVSS | high polyreactivity |
